Results on 2 molecules are retold here after US20160114017A1 (UNIVERSITY OF PITTSBURGH OF THE COMMONWEALTH SYSTEM OF …, published 2016).

For the test, the target named is T1, HLA-A2 on the cell surface (HLA-A2 transfected T2 cell line; SNB19 glioma cells) (human).
T1 construct: whole, on cells; Class I MHC on cells; also called HLA-A*0201
Briefly: T2 cell HLA-A2 stabilisation, flow cytometry, peptide 1 nM overnight. On the procedure:
The binding capability of these modified peptides was assessed using an HLA-A2 transfected T2 cell line. Aliquots of T2 cells were incubated with modified peptides or IL-13Rα2₃₄₅₋₃₅₃ at 1 nM overnight, and then examined for the surface expression levels of HLA-A2 on T2 cells by flow cytometry. Since stable binding of HLA-A2 with peptide epitopes further stabilizes the surface expression of HLA-A2 (Francini et al., 2002; Alves et al., 2003), quantitative expression levels of HLA-A2, which is indicated by Mean Fluorescence Intensity (MFI) in Table 1, correlate with the binding affinity of the peptide-epitopes that are co-incubated with the T2 cells.

B1: Native IL-13Rα2345-353 peptide (peptide)
peptide: WLPFGFILI
notes: Synthetic peptide incubated with T2 cells at 1 nM overnight; also called IL-13Rα345-353; wild type IL-13Rα2345-353
Take B1: the “Binding Index (MFI)” value is 237 MFI.

B2: IL-13Rα2-V9 peptide (I replaced with V at P9) (peptide)
peptide: WLPFGFILV
notes: Synthetic modified peptide; also called IL-13Rα2345-9V
Consider B2, for which the “Binding Index (MFI)” value stood at 376 MFI.
